From the supplement of paper PMC9170038 come the findings set out here.

The series relates to MS2 coat protein. Put plainly: apparent KD of MS2 coat protein; designed switch direction (-1 OFF switch, 1 ON switch): -1; higher = weaker reporter binding. In outline: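 For each design, the apparent KD is the median over clusters of curves fitted to normalised cluster fluorescence. Clusters held RNA switches with common flanks, transcribed on Illumina chips by stalled E. coli RNA polymerase. These were titrated with SNAP-549-labelled MS2 coat protein, doubling from 0.7 or 1.5 nM to 3 µM, without input, with 200 uM small-molecule ligand, or with an oligonucleotide input.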

The mark [1] stands for this setting: input ligand: microRNA oligo, concentration not stated.
[2] abbreviates: Eterna round: R95, input ligand: FMN 200 uM.
Setting [3] is: Eterna round: R95, input ligand: microRNA oligo, concentration not stated.
Where [4] appears, read: Eterna round: R95, input ligand: none.

On to “AGUUUACAUGAGGAUCACCCAUGUGAGGAUAUGGAUUCGCUGGCCGUAGCCAGUGGAUCCAGAAGGCGCAUGAU [JL-ex1-4.13] (Eterna round: R97, puzzle: Exclusion 1)”, for which the “apparent KD of MS2 coat protein” value (input ligand: FMN 200 uM) was 401 nM and the “apparent KD of MS2 coat protein” value (input ligand: none) was 86.3 nM.

With “AUAAAGUGAGGAUAUCCAAUAUAUGACAUGAGGAUCACCCAUGUUUCCACUCGUACCUCCGGAGAAGGCACAAAAU [Ex5 #61] (Eterna round: R97, puzzle: Exclusion 5)”, the “apparent KD of MS2 coat protein” value (input ligand: FMN 200 uM) stood at 24.5 nM and the “apparent KD of MS2 coat protein” value (input ligand: none) worked out at 30.5 nM.

Regarding “AUAAAUCAUGUAGGAUAUGCGUGGAGAAACUAUGCAGAAGGACAUGAGGAUCACCCAUGUGCUUCCGUCUGCGUACAGAUGGUA [Mat - Exclusion NG 1 - Mod of JL - D9] (Eterna round: R96, puzzle: Exclusion NG 1)”, the “apparent KD of MS2 coat protein” value by setting is: (input ligand: FMN 200 uM) 134 nM; under setting [1], 20.1 nM; (input ligand: none) 27.3 nM.

In the case of “AUAAAUCAUGUAGGAUAUGCGUGGCAAAGCUAUGCAGAAGGACAUGAGGAUCACCCAUGUUCUUCCGUCUGCGUACAGACGGAA [Mat - Exclusion NG 1 - Mod of JL - D40] (Eterna round: R96, puzzle: Exclusion NG 1)”, the “apparent KD of MS2 coat protein” value (input ligand: FMN 200 uM) was determined as 418 nM, the “apparent KD of MS2 coat protein” value under setting [1] was found to be 31.4 nM and the “apparent KD of MS2 coat protein” value (input ligand: none) is 37.3 nM.

As for “AUAAAUCAUGUAGGAUAUGCGUGGCGAAGCUAUGCAGAAGGACAUGAGGAUCACCCAUGUGCUUCCGUCUGCGUACAGACGGUA [Mat - Exclusion NG 1 - Mod of JL - D10] (Eterna round: R96, puzzle: Exclusion NG 1)”, the “apparent KD of MS2 coat protein” value worked out at 125 nM (input ligand: FMN 200 uM), 77.6 nM under setting [1] and 142 nM (input ligand: none).

Regarding “AUAAAUCAUGUAGGAUAUGCGUGGCGAAGCUAUGCAGAAGGACAUGAGGAUCACCCAUGUGCUUGCGUCUGCGUACAGAUGCUA [Mat - Exclusion NG 1 - Mod of JL - D5] (Eterna round: R96, puzzle: Exclusion NG 1)”, the “apparent KD of MS2 coat protein” value (input ligand: FMN 200 uM) turned out to be 330 nM, the “apparent KD of MS2 coat protein” value under setting [1] was found to be 37.7 nM and the “apparent KD of MS2 coat protein” value (input ligand: none) was determined as 51.7 nM.

Consider “AUAAAUUUAGAGGAUAUCUUAUAUGGGCGACCGAGAGAAGGCUGGACAUGAGGAUCACCCAUGUGCUUCGGUGA [Eternabot (L1) Solution 96] (Eterna round: R97, puzzle: Exclusion 6)”, for which the “apparent KD of MS2 coat protein” value worked out at 67.5 nM (input ligand: FMN 200 uM) and 75 nM (input ligand: none).

Consider “AUAACAUGCUGGUGAUCAUACAUGAGGAUCACCCAUGUAACAAGCUUUUUGCUCGUCUUAUAAGAUCACCAGCAUGU [Stov1/9-A2] (Eterna round: R97, puzzle: Sensor, turn-off variant 1)”, for which the “apparent KD of MS2 coat protein” value worked out at 14.8 nM (input ligand: FMN 200 uM) and 15.4 nM (input ligand: none).

On to “AUAACGAUAGUCAGGAUAUCGGUGGCAUCCGUCACCGAGAAGGGACAUGAGGAUCACCCAUGUUAAGCCUAUGA [Eternabot (L1) Solution 69] (Eterna round: R97, puzzle: Brourd's mod of Exclusion 4)”, for which the “apparent KD of MS2 coat protein” value (input ligand: FMN 200 uM) stood at 11.5 nM and the “apparent KD of MS2 coat protein” value (input ligand: none) worked out at 19.3 nM.

Take “AUAAGCUUUGAGAUCCUUAACAUGAGGAUCACCCAUGUUCGUCUUAUGAUGGUCUGAUCCCUGAGGAUCGGACCGUU [JL-sv1-2.02 Brourd Mod] (puzzle: Sensor v3, turn-off variant 1)”: the “apparent KD of MS2 coat protein” value was 262 nM under setting [2], 10.4 nM under setting [3] and 257 nM under setting [4].

As to “AUAAGGUGAGGAUAUCCACGACCCUACAUGAGGAUCACCCAUGUAUACAGUACGUGUAGAGGAGAAGGUACAUGUC [Eternabot (L2) Solution 78] (Eterna round: R97, puzzle: Exclusion 5)”, the “apparent KD of MS2 coat protein” value is 28.3 nM (input ligand: FMN 200 uM) and 29.3 nM (input ligand: none).

“AUAAGUGAUAAGGAUAUCACUAGCUUCGGCUAGUGAGAAGGUAUCACAUGAGGAUCACCCAUGUGUUCCAAUAA [Ex6/7-A1] (Eterna round: R97, puzzle: Exclusion 6)”: the “apparent KD of MS2 coat protein” value (input ligand: FMN 200 uM) was 603 nM and the “apparent KD of MS2 coat protein” value (input ligand: none) worked out at 213 nM.

As for “AUAAUAAAACAUGAGGAUCACCCAUGUGGGUCGUUCUACUGGCAGGAUAUCGCCAGACAAUAAAACGAGAAGGGCCAGUUAAUA [Leanerrean] (Eterna round: R96, puzzle: Exclusion NG 3)”, the “apparent KD of MS2 coat protein” value is 168 nM (input ligand: FMN 200 uM), 92.6 nM under setting [1] and 86 nM (input ligand: none).

Take “AUAAUAAAGGAGGAUAUCGUAUCGGAAACGAUACGAGAAGGUCUAACAUGAGGAUCACCCAUGUUCCUCAAUAA [Mat - Exclusion 6 - Eli Mod - D48] (puzzle: Exclusion 6)”: the “apparent KD of MS2 coat protein” value came out at 54.5 nM under setting [2], 35.9 nM under setting [3] and 36.1 nM under setting [4].

For “AUAAUACAUGUAGGAUAUGCGUGGCGAAGCUAUGCAGAAGGACAUGAGGAUCACCCAUGUGCUAGCGUCUGCGUACAGAUGCUA [JL eng1 1.35 mod 3] (Eterna round: R96, puzzle: Exclusion NG 1)”, the “apparent KD of MS2 coat protein” value reads like this: (input ligand: FMN 200 uM) 310 nM; under setting [1], 21 nM; (input ligand: none) 44.1 nM.

Turning to “AUAAUGUGAGGAUAUCAGUCGACUAGCUUCGGCUAGUCGACUGAGAAGGUACAUGAGGAUCACCCAUGUGGUUC [E4/11-B1] (Eterna round: R97, puzzle: Exclusion 4)”, the “apparent KD of MS2 coat protein” value is, setting by setting: (input ligand: FMN 200 uM) 885 nM; (input ligand: none) 456 nM.

Regarding “AUAAUGUGAGGAUAUCAGUCGUACAGCUGCGGCUGUACGACUGAGAAGGCACAUGAGGAUCACCCAUGUGGUCA [E4/5-A3] (Eterna round: R97, puzzle: Exclusion 4)”, the “apparent KD of MS2 coat protein” value turned out to be 70.7 nM (input ligand: FMN 200 uM) and 672 nM (input ligand: none).

Consider “AUAAUUAGUUCAGGAUAUCAGCACGAUUAGUGCUGAGAAGGGAACAUGAGGAUCACCCAUGUGAUCAAUAUUAUAAUUUUAAUU [ENG1/12-B1] (Eterna round: R96, puzzle: Exclusion NG 1)”, for which the “apparent KD of MS2 coat protein” value is, setting by setting: (input ligand: FMN 200 uM) 281 nM; under setting [1], 540 nM; (input ligand: none) 1150 nM.

As for “AUAAUUUAAGUCAGGAUAUACCUAUGGAAACAUAGGUAGAAGGGACAUGAGGAUCACCCAUGUUUAUAUACAUA [Fiskers BMX 4 - 4] (puzzle: Brourd's mod of Exclusion 4)”, the “apparent KD of MS2 coat protein” value is, setting by setting: under setting [2], 29.8 nM; under setting [3], 16.8 nM; under setting [4], 15.1 nM.

Regarding “AUACCACGAGGAUAUCGUCUAUAAUACAUGAGGAUCACCCAUGUUAUAUCUGUAAUGUUUCGAGAAGGCGUGUGUU [JR_E5_Sub084] (Eterna round: R96, puzzle: Exclusion 5)”, the “apparent KD of MS2 coat protein” value is, setting by setting: (input ligand: FMN 200 uM) 17 nM; under setting [1], 15.4 nM; (input ligand: none) 21.3 nM.

In the case of “AUACCACGAGGAUAUCGUCUAUAAUACAUGAGGAUCACCCAUGUUAUAUCUGUAAUGUUUCGAGAAGGCGUGUGUU [JR_E5_Sub084] (puzzle: Exclusion 5)”, the “apparent KD of MS2 coat protein” value under setting [3] was 17.9 nM.

On to “AUAUAGAUAGUCAGGAUAUGCUAGUGAUAACAGUAGUAGAAGGGACAUGAGGAUCACCCAUGUAGAUAGUGCAC [Brourd's EX4 #4] (Eterna round: R97, puzzle: Brourd's mod of Exclusion 4)”, for which the “apparent KD of MS2 coat protein” value reads like this: (input ligand: FMN 200 uM) 32.6 nM; (input ligand: none) 22.5 nM.

On to “AUAUAGCGAGGAUAUACAUGAGGAUCACCCAUGUAGGUUCCGGGUUUUCCAGUAAAAUGUAGAAGGCGCAUGGA [EX3 B.5] (Eterna round: R97, puzzle: Exclusion 3)”, for which the “apparent KD of MS2 coat protein” value worked out at 99.4 nM (input ligand: FMN 200 uM) and 44.6 nM (input ligand: none).

For the sequence “AUAUUAAGUGUGAGGAUAUGCUGGUCCUUGGAUCAGCAGAAGGCACAUGAGGAUCACCCAUGUAAUAUAUUUAU [Mat - Exclusion 4 - JL Mod - D47] (puzzle: Brourd's mod of Exclusion 4)”, the “apparent KD of MS2 coat protein” value under setting [3] is 78.6 nM.

“AUAUUGUGAGGAUAUCAGGUGUGCUAGCGUACUGGUACAUCUGAGAAGGCACAUGAGGAUCACCCAUGUUUCUU [Mat - Exclusion 4 - Mod of JL - D42] (puzzle: Exclusion 4)”: the “apparent KD of MS2 coat protein” value under setting [3] was determined as 15.2 nM.

“AUCAGCUCGUGAGGAUAUACAUGAGGAUCACCCAUGUGGUCAUUAGCAGCUUCGGCUGCAUUAAUGUAGAAGGCACGAGCUGAU [ENG2/8-A2] (Eterna round: R96, puzzle: Exclusion NG 2)”: the “apparent KD of MS2 coat protein” value (input ligand: FMN 200 uM) stood at 360 nM, the “apparent KD of MS2 coat protein” value under setting [1] came out at 732 nM and the “apparent KD of MS2 coat protein” value (input ligand: none) stood at 829 nM.

“AUCAUGUAAGGAUAUCUUACAUGGAUCGAAAGAUCAAGUUAAGAGAAGGUACAUGAGGAUCACCCAUGUAUAAC [Ex4-3: 34] (puzzle: Exclusion 4)”: the “apparent KD of MS2 coat protein” value came out at 21 nM under setting [2], 22.3 nM under setting [3] and 20.8 nM under setting [4].

For the sequence “AUCAUGUAAGGAUAUCUUACAUGUGACUUCGGUCACAGUUAAGAGAAGGUACAUGAGGAUCACCCAUGUAUAAC [Ex4-3: 37] (puzzle: Exclusion 4)”, under setting [3], the “apparent KD of MS2 coat protein” value is 25.3 nM.

As to “AUCAUGUAAGGAUAUCUUAUAUGGAUCGAAAGAUCAAGUUAAGAGAAGGUACAUGAGGAUCACCCAUGUAUAAC [Ex4-3: 33] (puzzle: Exclusion 4)”, the “apparent KD of MS2 coat protein” value under setting [3] came out at 19.4 nM.

Turning to “AUCAUGUAAGGAUAUCUUAUAUGGAUCUUCGGAUCAAGUUAAGAGAAGGUACAUGAGGAUCACCCAUGUAUAAC [Ex4-3: 32] (puzzle: Exclusion 4)”, the “apparent KD of MS2 coat protein” value under setting [3] came out at 24.3 nM.

On to “AUCCAACAUGAGGAUCACCCAUGUCAGGAUAUCUAGCGGUGCGGCAACCCGGGCGCGCGGAGAAGGGACAACGG [EX1 B.23] (Eterna round: R97, puzzle: Exclusion 1)”, for which the “apparent KD of MS2 coat protein” value reads like this: (input ligand: FMN 200 uM) 56.2 nM; (input ligand: none) 27.2 nM.
